Measured values from patent US20040106557A1 (LICENTIA, published 2004).
Bridge positions count the residues as written; N and C are the ends. Ends that are not written are not given here.

B1: phage-displayed peptide C-5 (fUSE5 phage clone) (peptide)
chain: CVSYCDGLQCWMC
notes: not shown: fUSE5 phage protein III and flanking residues
B2: phage-displayed peptide C-1 (fUSE5 phage clone) (peptide)
chain: CVSYCLFEFCYVC
notes: as for B1
B3: phage-displayed peptide D-1 (fUSE5 phage clone) (peptide)
chain: CLSTCAQSCRISC
notes: as for B1
B4: phage-displayed peptide B-2 (fUSE5 phage clone) (peptide)
chain: CVFAHNYDYLVC
notes: as for B1
B5: phage-displayed peptide B-1 (fUSE5 phage clone) (peptide)
chain: CTFSVDYKYLMC
notes: as for B1
B6: phage-displayed peptide A-2 (fUSE5 phage clone) (peptide)
chain: CVIYDGNHWC
notes: as for B1
B7: phage-displayed peptide C-4 (fUSE5 phage clone) (peptide)
chain: CVAYCIEHHCWTC
notes: as for B1
B8: phage-displayed peptide A-3 (fUSE5 phage clone) (peptide)
chain: CIFEPDYSYC
notes: as for B1
B9: phage-displayed peptide D-2 (fUSE5 phage clone) (peptide)
chain: CLLYCHDACWWVC
notes: as for B1
B10: phage-displayed peptide B-3 (fUSE5 phage clone) (peptide)
chain: CRFDKEYRTLVC
notes: as for B1
B11: phage-displayed peptide A-1 (fUSE5 phage clone) (peptide)
chain: CVFTSDYAFC
notes: as for B1
B12: phage-displayed peptide C-3 (fUSE5 phage clone) (peptide)
chain: CVAYCEEWECYVC
notes: as for B1
B13: phage-displayed peptide C-2 (fUSE5 phage clone) (peptide)
chain: CVEYCWEGSCYVC
notes: as for B1
B14: phage-displayed peptide A-4 (fUSE5 phage clone) (peptide)
chain: CVFDDLYSFC
notes: as for B1
B15: phage-displayed peptide Z-7 (fUSE5 phage clone) (peptide)
chain: CVFDALYTFC
modifications: cysteine pairing not given here; also: displayed on fUSE5 phage protein III with flanking residues
notes: isolated with 200 µM ZnCl2; not shown: fUSE5 phage protein III and flanking residues
B16: phage-displayed peptide Z-11 (fUSE5 phage clone) (peptide)
chain: CMFDPMYMWMTC
modifications: cysteine pairing not given here; also: displayed on fUSE5 phage protein III with flanking residues
notes: as for B15
B17: phage-displayed peptide Z-1 (fUSE5 phage clone) (peptide)
chain: CVTYCYGEVCYYC
notes: isolated with 200 µM ZnCl2 in the panning buffer; not shown: fUSE5 phage protein III and flanking residues
B18: phage-displayed peptide Z-3 (fUSE5 phage clone) (peptide)
chain: CVQYCIGGDCWFC
modifications: cysteine pairing not given here; also: displayed on fUSE5 phage protein III
notes: as for B15
B19: phage-displayed peptide Z-10 (fUSE5 phage clone) (peptide)
chain: CVPYLGLWLC
modifications: cysteine pairing not given here; also: displayed on fUSE5 phage protein III with flanking residues
notes: as for B15
B20: phage-displayed peptide Z-6 (fUSE5 phage clone) (peptide)
chain: CVWYTGNTWC
modifications: not fully specified; cysteine pairing not given here; also: displayed on fUSE5 phage protein III with flanking residues
notes: as for B15
B21: phage-displayed peptide Z-5 (fUSE5 phage clone) (peptide)
chain: CVAYCISSLCYYC
modifications: cysteine pairing not given here; also: displayed on fUSE5 phage protein III
notes: as for B15
B22: phage-displayed peptide Z-4 (fUSE5 phage clone) (peptide)
chain: CVVYCDSMKCWTC
modifications: cysteine pairing not given here; also: displayed on fUSE5 phage protein III
notes: as for B15
B23: phage-displayed peptide Z-2 (fUSE5 phage clone) (peptide)
chain: CAAYCVAGLCYGC
modifications: cysteine pairing not given here; also: displayed on fUSE5 phage protein III
notes: as for B15
B24: phage-displayed peptide Z-8 (fUSE5 phage clone) (peptide)
chain: CVIYPGNVWC
modifications: cysteine pairing not given here; also: displayed on fUSE5 phage protein III with flanking residues
notes: as for B15

biological target: T1, Prostate specific antigen (PSA), purified from human seminal fluid (human, UniProt P07288 25-261); assay: phage display, three rounds of selection on PSA captured by MAb 5E4
T1 construct: mature; Mostly captured on wells by MAb 5E4 (IFMA) or on the chip by MAb H117 (SPR); in solution in enzyme assays; also called free PSA; active PSA
Description: (§1) The screening of phage display peptide libraries was performed essentially as described by Koivunen et al. (21). Briefly, each phage library was separately screened with PSA captured on microtiter wells coated with the monoclonal antibody 5E4, which binds both free and complexed PSA (24). 33 nM PSA in TBS buffer containing 10 g/L BSA (BSA-TBS) was incubated in wells coated with MAb 5E4 for 1 h, then the wells were washed to remove unbound PSA. An aliquot of each phage library ([…] infectious particles) was added to the wells, and incubated for 3 h at 22° C. during the first round of panning and for 1 h during subsequent rounds. The phage solution was removed and the wells were washed with TBS containing 0.5% Tween 20. The panning was also performed in the prescence of 200 μM ZnCl2. The bound phage were eluted with 0.1 M glycine buffer, pH 2.2 and neutralized with 1 M Tris base. The eluted phage were amplified by infection of E. coli K91 kan cells, and purified by precipitation with polyethylene glycol. After three rounds of selection and amplification single stranded DNA from individual phage clones was prepared and the peptide sequences were determined by sequencing the relevant part of the viral DNA. Sequencing was performed with an ABI 310 Genetic analyzer and Dye Terminator Cycle Sequencing Core Kit (PE Applied Biosystems, Foster City, Calif., USA) using the oligonucleotide 5′ […] 3′ as a primer.

Does B1 bind?
Result: binds

Does B2 bind?
Result: binds

Does B3 bind?
Result: binds

Does B4 bind?
Result: binds

Does B5 bind?
Result: binds

Does B6 bind?
Result: binds

Does B7 bind?
Result: binds

Does B8 bind?
Result: binds

Does B9 bind?
Result: binds

Does B10 bind?
Result: binds

Does B11 bind?
Result: binds

Does B12 bind?
Result: binds

Does B13 bind?
Result: binds

Does B14 bind?
Result: binds

biological target: T1, Prostate specific antigen (PSA), …; assay: cell-based or functional assay

For CVAYCIEHHCWTC (also: 99mTc chelated between thiol sulfurs of reduced peptide) [Tc99m-labeled C4], which “decrease in PSA enzyme activity (S-2586, A405), 30-fold molar excess of peptide” value is on record?
Its value is ~50%.

biological target: T1, Prostate specific antigen (PSA), …; assay: GST-peptide IFMA, PSA captured by MAb 5E4, Eu-labelled anti GST tracer

Which “Maximal binding (CPS)” value does the source give for CVAYCIEHHCWTC (other) [GST-C-4 (peptide C-4 expressed as glutathione S-transferase fusion protein)] here?
Its value is 790000 CPS.

biological target: T1, Prostate specific antigen (PSA), …; assay: phage display selection on PSA captured by MAb 5E4, 200 µM ZnCl2 in the panning buffer
Description: as §1

Does B15 bind?
Result: binds

Does B16 bind?
Result: binds

Does B17 bind?
Result: binds

Does B18 bind?
Result: binds

Does B19 bind?
Result: binds

Does B20 bind?
Result: binds

Does B21 bind?
Result: binds

Does B22 bind?
Result: binds

Does B23 bind?
Result: binds

Does B24 bind?
Result: binds

biological target: T1, Prostate specific antigen (PSA), …; assay: cell-based or functional assay; remark: another data set of the same source

Which PSA-peptide/PSA ratio does the source give for CVAACIEHHCWTC (disulfide (positions not given here)) [C-4-5 (C-4 A4)] here?
Its PSA-peptide/PSA ratio is 1 ratio.

With CVFTSNYAFC (disulfide 1-10 (inferred)) [A-1-4 (A-1 N6)] as the binder, how does the PSA-peptide/PSA ratio read?
Its PSA-peptide/PSA ratio is 2.4 ratio.

For CVAYCIEHHCWTC (disulfide 1-13, 5-10) [chemically synthesized peptide C-4 without GA flanks (C-4-1, C4 parent)], which PSA-peptide/PSA ratio is on record?
Its PSA-peptide/PSA ratio is 2.1 ratio.

How did the PSA-peptide/PSA ratio turn out when CVYTSDYAYC (disulfide 1-10 (inferred)) [A-1-5 (A-1 Y39)] was run?
The PSA-peptide/PSA ratio was 1 ratio.

How did the PSA-peptide/PSA ratio turn out when CVFAHNYNYC (disulfide 1-10 (inferred)) [B-2-4 (B-2 10 N8)] was run?
The PSA-peptide/PSA ratio was 1.9 ratio.

With CVFTSNAAYC (disulfide 1-10 (inferred)) [A-1-6 (A1 N6Y7Y9)] as the binder, how does the PSA-peptide/PSA ratio read?
Its PSA-peptide/PSA ratio is 1 ratio.

How did the PSA-peptide/PSA ratio turn out when CVFAHNYNALVC (disulfide 1-12 (inferred)) [B-2-3 (B-2 N8A9)] was run?
The PSA-peptide/PSA ratio was 2.6 ratio.

With CVAYAIQHHC (disulfide 1-10 (inferred)) [C-4-4 (C-4 10A5Q7)] as the binder, how does the PSA-peptide/PSA ratio read?
The PSA-peptide/PSA ratio was 1.1 ratio.

How did the PSA-peptide/PSA ratio turn out when CVFTSDYAFC (disulfide 1-10) [chemically synthesized peptide A-1 (A-1-1, A-1 parent)] was run?
Its PSA-peptide/PSA ratio is 2.3 ratio.

Which PSA-peptide/PSA ratio does the source give for cyclo(HHCWTVAYCIE) (disulfide 3-9 (inferred)) [C-4-7 (cyclic with peptide bond)] here?
The PSA-peptide/PSA ratio was 0.8 ratio.

CVFTSNYNYC (disulfide 1-10 (inferred)) [A-1-3 (A-1 N6N8Y9)] was tested. Which PSA-peptide/PSA ratio did it give?
The PSA-peptide/PSA ratio was 1.9 ratio.

With CVFTSNYAYC (disulfide 1-10 (inferred)) [A-1-2 (A-1 N6Y9)] as the binder, how does the PSA-peptide/PSA ratio read?
Its PSA-peptide/PSA ratio is 2.3 ratio.

How did the PSA-peptide/PSA ratio turn out when CVAFCIEHHCWTC (disulfide (positions not given here)) [C-4-2 (C-4 F4)] was run?
Its PSA-peptide/PSA ratio is 2.3 ratio.

How did the PSA-peptide/PSA ratio turn out when CVFAHNYNYLVC (disulfide 1-12 (inferred)) [B-2-2 (B-2 N8)] was run?
Its PSA-peptide/PSA ratio is 3.1 ratio.

How did the PSA-peptide/PSA ratio turn out when CVAYCIEHHCATC (disulfide (positions not given here); not fully specified) [C-4-6 (C-4 A11)] was run?
The PSA-peptide/PSA ratio was 0.9 ratio.

CVAYCIQHHCWTC (disulfide (positions not given here)) [C-4-3 (C-4 Q7)] was tested. Which PSA-peptide/PSA ratio did it give?
Its PSA-peptide/PSA ratio is 2.1 ratio.

Which PSA-peptide/PSA ratio does the source give for CVFAHNYDYLVC (disulfide 1-12) [chemically synthesized peptide B-2 (B-2-1, B-2 parent)] here?
Its PSA-peptide/PSA ratio is 3 ratio.

Which PSA-peptide/PSA ratio does the source give for CVFAHNANYLVC (disulfide 1-12 (inferred)) [B-2-5 (B-2 A7)] here?
Its PSA-peptide/PSA ratio is 1.1 ratio.

biological target: T1, Prostate specific antigen (PSA), …; assay: cell-based or functional assay; remark: another data set of the same source

With CVAYCIEHHCWTC (other) [GST-C-4 (peptide C-4 expressed as glutathione S-transferase fusion protein)] as the binder, how does the “50% stimulation” value read?
The value was 0.57 µM.
